From patent US20260077004A1 (UNIVERSITY OF MASSACHUSETTS, published 2026)

B1: truncated G628S KCNH2 (other)
chain: MPVRRGHVAPQNTFLDTIIRKFEGQSRKFIIANARVENCAVIYCNDGFCELCGYSRAEVMQRPCTCDFLHGPRTQRRAAAQIAQALLGAEERKVEIAFYRKDGSCFLCLVDVVPVKNEDGAVIMFILNFEVVMEKDMVGSPAHDTNHRGPPTSWLAPGRAKTFRLKLPALLALTARESSVRSGGAGGAGAPGAVVVDVDLTPAAPSSESLALDEVTAMDNHVAGLGPAEERRALVGPGSPPRSAPGQLPSPRAHSLNPDASGSSCSLARTRSRESCASVRRASSADDIEAMRAGVLPPPPRHASTGAMHPLRSGLLNSTSDSDLVRYRTISKIPQITLNFVDLKGDPFLASPTSDREIIAPKIKERTHNVTEKVTQVLSLGADVLPEYKLQAPRIHRWTILHYSPFKAVWDWLILLLVIYTAVFTPYSAAFLLKETEEGPPATECGYACQPLAVVDLIVDIMFIVDILINFRTTYVNANEEVVSHPGRIAVHYFKGWFLIDMVAAIPFDLLIFGSGSEELIGLLKTARLLRLVRVARKLDRYSEYGAAVLFLLMCTFALIAHWLACIWYAIGNMEQPHMDSRIGWLHNLGDQIGKPYNSSGLGGPSIKDKYVTALYFTFSSLTSVGFSNVSPNTNSEKIFSICVMLIGSLMYASIFGNVSAIIQRLYSGTARYHTQMLRVREFIRFHQIPNPLRQRLEEYFQHAWSYTNGIDMNAVLKGFPECLQADICLHLNRSLLQHCKPFRGATKGCLRALAMKFKTTHAPPGDTLVHAGDLLTALYFISRGSIEILRGDVVVAILGKNDIFGEPLNLYARPGKSNGDVRALTYCDLHKIHRDDLLEVLDMYPEFSDHFWSSLEITFNLRDTNMIPGSPGSTELEGGFSRQRKRKLSFRRRTDKDTEQPGEVSALGPGRAGAGPSSRG
B2: full-length G628S KCNH2 (other)
chain: MPVRRGHVAPQNTFLDTIIRKFEGQSRKFIIANARVENCAVIYCNDGFCELCGYSRAEVMQRPCTCDFLHGPRTQRRAAAQIAQALLGAEERKVEIAFYRKDGSCFLCLVDVVPVKNEDGAVIMFILNFEVVMEKDMVGSPAHDTNHRGPPTSWLAPGRAKTFRLKLPALLALTARESSVRSGGAGGAGAPGAVVVDVDLTPAAPSSESLALDEVTAMDNHVAGLGPAEERRALVGPGSPPRSAPGQLPSPRAHSLNPDASGSSCSLARTRSRESCASVRRASSADDIEAMRAGVLPPPPRHASTGAMHPLRSGLLNSTSDSDLVRYRTISKIPQITLNFVDLKGDPFLASPTSDREIIAPKIKERTHNVTEKVTQVLSLGADVLPEYKLQAPRIHRWTILHYSPFKAVWDWLILLLVIYTAVFTPYSAAFLLKETEEGPPATECGYACQPLAVVDLIVDIMFIVDILINFRTTYVNANEEVVSHPGRIAVHYFKGWFLIDMVAAIPFDLLIFGSGSEELIGLLKTARLLRLVRVARKLDRYSEYGAAVLFLLMCTFALIAHWLACIWYAIGNMEQPHMDSRIGWLHNLGDQIGKPYNSSGLGGPSIKDKYVTALYFTFSSLTSVGFSNVSPNTNSEKIFSICVMLIGSLMYASIFGNVSAIIQRLYSGTARYHTQMLRVREFIRFHQIPNPLRQRLEEYFQHAWSYTNGIDMNAVLKGFPECLQADICLHLNRSLLQHCKPFRGATKGCLRALAMKFKTTHAPPGDTLVHAGDLLTALYFISRGSIEILRGDVVVAILGKNDIFGEPLNLYARPGKSNGDVRALTYCDLHKIHRDDLLEVLDMYPEFSDHFWSSLEITFNLRDTNMIPGSPGSTELEGGFSRQRKRKLSFRRRTDKDTEQPGEVSALGPGRAGAGPSSRGRPGGPWGESPSSGPSSPESSEDEGPGRSSSPLRLVPFSSPRPPGEPPGGEPLMEDCEKSSDTCNPLSGAFSGVSNIFSFWGDSRGRQYQELPRCPAPTPSLLNIPLSSPGRRPRGDVESRLDALQRQLNRLETRLSADMATVLQLLQRQMTLVPPAYSAVTTPGPGPTSTSPLLPVSPLPTLTLDSLSQVSQFMACEELPPGAPELPQEGPTRRLSLPGQLGALTSQPLHRHGSDPGS

Target: wild-type KCNH2 (human, UniProt Q12809 1-1159)
Test: cell-based or functional assay

Row | Binder | reduction in sustained current (IKr) relative to GFP control cells, CHO cells | reduction in tail current (IKr) relative to GFP control cells, CHO cells
1 | B1 | 70% | 78%
2 | B2 | 65% | 58%
